The target of test [1] is T1, A56-C-His (recombinant protein A56 with C-terminal His tag, produced in HEK293F cells) (vaccinia virus, UniProt P08714 17-279).
T1 chain: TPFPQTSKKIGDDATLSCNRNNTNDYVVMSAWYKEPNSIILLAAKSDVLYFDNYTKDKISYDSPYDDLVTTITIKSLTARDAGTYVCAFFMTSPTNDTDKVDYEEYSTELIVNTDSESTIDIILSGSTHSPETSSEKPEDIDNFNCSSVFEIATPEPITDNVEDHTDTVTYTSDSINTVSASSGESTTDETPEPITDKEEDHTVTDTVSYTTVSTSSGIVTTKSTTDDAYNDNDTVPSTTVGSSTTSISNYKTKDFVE

The target of test [2] is T1, A56-C-His (recombinant protein A56 with …). The experiment in a line: ELISA on coated A56 (100 ng), fit; R square 0.9953. Background: In an ELISA, binding on a coated surface is turned into a signal by an enzyme label.
The target is the same in test [3].
Test [4] shares this target. As to the kind of experiment: OCTET (row 'KD (M) by OCTET'; the legend calls it SPR).
The target is the same in test [5]. The experiment in a line: ELISA (row 'KD (M) by ELISA').
Test [6] shares this target. The experiment in a line: OCTET (row 'KD (M) by OCTET'; the legend calls it SPR).
Test [7] has the same target. As to the kind of experiment: ELISA (row 'KD (M) by ELISA').
The target is the same in test [8]. As to the kind of experiment: ELISA on coated A56 (100 ng), fit; R square 0.9942.
For test [9] the target is unchanged. The experiment in a line: ELISA (row 'KD (M) by ELISA').
The target is the same in test [10]. As to the kind of experiment: OCTET (row 'KD (M) by OCTET'; the legend calls it SPR).
For test [11] the target is unchanged. The experiment in a line: ELISA on coated A56 (100 ng), fit; R square 0.9274.
For test [12] the target is unchanged. The experiment in a line: ELISA (row 'KD (M) by ELISA').
The target is the same in test [13]. The experiment in a line: ELISA on coated A56 (100 ng), fit; R square 0.9821.
For test [14] the target is unchanged. As to the kind of experiment: OCTET (row 'KD (M) by OCTET'; the legend calls it SPR).
Test [15] shares this target. The test is described as above.
For test [16] the target is unchanged. As to the kind of experiment: ELISA on coated A56 (100 ng), fit; R square 0.9969.
Test [17] shares this target. The experiment in a line: ELISA (row 'KD (M) by ELISA').

Read-outs that look alike come from different tables or passages of the source.

B1: anti-A56 antibody Ab19 (antibody, V domains shown)
VH: QVQLVESGAEVRRPGSSVKVSCKTSGVTFSGYVLSWVRQAPGHGLEWMGRIIPLIDVENYAREFQGRMKITADKSTNTVYMELNNLRSEDTAVYYCAKSVVRGLDYYYYGFDVWGQGTTVTVSS
VL: SYELTQPPSLSVAPGKTARITCGGNNIGSKSVHWYQQKPGQAPRLVTYYDGNRPSGIPERFSGSNSGNTATLIISRVEAGDEADYYCQVWDSSSDQGVFGTGTKVTVL
notes: also called SA2044; A56-02C07
Broadly, the Kd is the equilibrium constant for the complex coming apart. A word on the koff: it is the first-order rate constant of dissociation. As a reminder, the kon is the second-order rate constant of association. B1: the equilibrium dissociation constant (Kd) was 0.438 nM in test [1], 0.044 nM in test [2], 0.438 nM in test [4] and 0.044 nM in test [5]. The off-rate (koff) in test [1] was determined as 2.47e-05 s⁻¹. The kon in [3] stood at 56400 M⁻¹ s⁻¹.

B2: anti-A56 antibody Ab18 (antibody, V domains shown)
VH: QVQLVESGGGLVQPGKSLRLSCAASGFTFSTYGMTWVRQAPGKGLEWVSGISGGGSSTNYADSVKGRFIISRDNSNNTLYLQMNSLRAEDTAVYYCARWGVMLSFDYWGQGTPVTVSS
VL: DIQMTQSPSTLPASVGDRVTITCRASYSVSPWLAWYQQKPGKAPKLLIYKASTLESGVPSRFSGSGSGTEFTLTISSLQPDDFATYYCQQFNSYMMYTFGQGTKLEIK
notes: also called SA2043; A56-02C06
For B2, the Kd in test [6] turned out to be 0.196 nM; in test [7] it was 0.026 nM; in [1], 0.196 nM; in [8] it was 0.026 nM. In addition, the off-rate constant (koff) in test [1] came to 1.96e-05 s⁻¹. Moreover, in test [3], the kon was 100000 M⁻¹ s⁻¹.

B3: anti-A56 antibody Ab13 (antibody, V domains shown)
VH: QMQLVESGAEVKKTGSSVKVSCKASGDTLTYRFLHWVRQAPGQAPEWMGWITPFNDNTNYAQKFQDRVTITRDRSMSTAYMELSSLRSEDTAVYYCATGGGNNYYGMEVWGQGTPITVSS
VL: SYELTQPLSLSVSPGQTASITCSGDKLGDKFTSWYQQQPGQSPVLVIYQDAKRPSGIPERFSGSNSGSTATLTISGTQSMDEADYYCQAWDSSSVVFGGGTKLTVL
notes: also called SA2038; A56-02A02
For the molecule B3, the dissociation constant Kd in test [1] was determined as 0.739 nM; in [9], 0.033 nM; in test [10], 0.739 nM; in test [11], 0.033 nM. The off-rate constant (koff) in test [1] came to 8.26e-05 s⁻¹. The kon in test [3] was 112000 M⁻¹ s⁻¹.

B4: anti-A56 antibody Ab16 (antibody, V domains shown)
VH: QVQLQQSGPGLVKPSQTLSLTCAISGDSVSSNSAAWNWIRQSPSRGLEWLGRTYYRSKWYNDYAVSVKSRITINPDTSKNQFSLQLNSVTAVDTAVYYCAKSYAGPISYYYYGLDVWGQGTTVTVSS
VL: QSALTQPASVSGSPGQSVTISCTGTSSDIGRYNLVSWYQQHPGKAPKLMIYGGSKRPSGVSNRFSGSNSDNTASLTISGLRAEDEADYYCSSYASSSTPYVFGTGTKVTVL
notes: also called SA2041; A56-02B08
With B4, the dissociation constant (Kd) in test [1] turned out to be 2.28 nM; in test [12], 0.024 nM; in [13], 0.024 nM; in test [14], 0.228 nM. Besides, the koff in [1] is 0.000561 s⁻¹. In addition, the association rate constant (kon) in test [3] came out at 246000 M⁻¹ s⁻¹.

B5: anti-A56 antibody Ab01 (antibody, V domains shown)
VH: QMQLVQSGAEVKKPGSSVKVSCKASGGTFSSYAISWVRQAPGQGLEWMGGIIPIFGTANYAQKFQGRVTMTRDTSTSTVYMELSSLKSEDTAVYYCARFVFGSGTYLDSWGQGTLVTVSS
VL: not shown
notes: also called SA2026; A56-01A02
As for B5, the dissociation constant Kd was 0.492 nM in [1], 0.492 nM in [15], 0.029 nM in test [16] and 0.029 nM in [17]. Besides, the koff in [1] worked out at 9.67e-05 s⁻¹. Moreover, the kon in [3] came out at 196000 M⁻¹ s⁻¹.

The values above are taken from patent US20240156865A1 (BIONOXX, published 2024).
